According to patent US20220112288A1 (published 2022):

Columns and labels:
human CD4 = molecular target: T1, human CD4 (human, UniProt P01730 26-458); assay: FACS, clonal hybridoma supernatant on human PBMCs
T1 construct: whole, on cells; also called hCD4

human CD4 on human PBMCs = molecular target: T2, human CD4 on human PBMCs (human, UniProt P01730 26-458); assay: FACS, clonal hybridoma supernatant on PBMCs
T2 construct: whole, on cells; also called hCD4

| Binder | % CD4 Stain (human CD4) [%] | gMFI of CD4+ (human CD4) [gMFI] | % CD4 Stain (human CD4 on human PBMCs) [%] | gMFI of CD4+ (human CD4 on human PBMCs) [gMFI] |
| --- | --- | --- | --- | --- |
| 75110_01N04A (antibody, V domains shown, Tested as clonal hybridoma supernatant (AlivaMab Mouse Kappa; anti-mouse Fc detection); also called Sib1.13) VH: EVQLVESGGGLVQPGGSLRLSCAASGFTFSNYDMHWVRQATGKGLEWVSTIGTAGDTYYPGSVKGRFTISRENAKNSLYLQMNSLRAGDTAVYYCARGGDFYYGLDVWGQGTTVTVSS VL: not shown | 37.2 | 205000 |  |  |
| 75110_08H06A (antibody, V domains shown) VH: EVQLVESGGGLVQPGGSLRLSCAASGFTFSNYDMHWVRQATGKGLEWVSTIGTAGDTYYPGSVKGRFTISRENAKNSLYLQMNSLRAGDTAVYYCARGGYDYYGMDVWGQGTTVTVSS VL: EIVLTQSPGTLSLSPGERATLSCRASQSITSIYLAWYRQKPGQAPRLLIYGASSRATGIPDRFSGSGSGTDFTLTISRLEPEDFAVYYCQQYGSSPFTFGPGTKVDIK |  |  | 28.1 | 88800 |
| 75110_01E08A (antibody, V domains shown, Tested as clonal hybridoma supernatant (AlivaMab Mouse Kappa; anti-mouse Fc detection); also called Sib1.11) VH: EVQLVESGGGLVQPGGSLRLSCAASGFTFNNYDMHWVRQATGKGLEWVSTIGTAGDTYYPASVKGRFTIYRENAKNSLYLQMNSLRAGDTAVYYCARGGDYYYGMDVWGQGTTVTVSS VL: not shown | 36.5 | 113000 |  |  |
| 75110_10N21A (antibody, V domains shown) VH: EVQLVESGGGLVQPGGSLRLSCAASGFTFSSYDMHWVRQVTGKGLEWVSTIGTAGDTYYPGSVKGRFTISRENAKNSLYLQMNSLRAGDTAVYYCARGGYYYYGMDVWGQGTTVTVSS VL: EIVLTQSPGTLSLSPGERATLSCRASQSFISSYLAWYQQKPGQAPRLLIYGASSRATGIPDRFSGSGSGTDFTLTISRLDPEDFAVYYCQQSGNSPFTFGPGTKVDVK |  |  | 38.3 | 203000 |
| 75110_08K12A (antibody, V domains shown) VH: EVQLVESGGGLVQPGGSLRLSCAASGFTFSSYDMHWVRQATGKGLEWVSTIGTAGDTYYPGSVKGRFTISRENAENSLYLQMNSLRAGDTALYYCARGDYYYYGMDVWGQGTTVTVSS VL: EIVLTQSPGTLSLSPGERATLSCRASQSVSSTYLAWYQQKPGQAPRLLIYGASNRATGIPDRFSGSGSGTDFTLTISRLEPEDFAVYYCQQFGTSPFTFGPGTKVDIK |  |  | 34.6 | 175000 |
| 75110_07E04A (antibody, V domains shown) VH: EVQLVESGGGLVQPGGSLRLSCAVSGFTFSSYDMHWVRQATGKGLEWVSTIGTAGDTYYPGSVKGRFTISRENAKKFLYLQMNSLRAGDTAVYYCARGGYYYYGMDVWGQGTTVTVSS VL: not shown |  |  | 36.1 | 141000 |
| 75110_10L22A (antibody, V domains shown) VH: EVQLVESGGGLVQPGGSLRLSCAASGFTFSSYDMHWVRQATGKGLEWVSTIGTAGDTYYPGSVKGRFTISRENAKNSLYLQMNGLRAGDTAVYYCARGNYFYYGVDVWGQGTTVTVSS VL: not shown |  |  | 34.3 | 77400 |
| 75110_07N04A (antibody, V domains shown) VH: QVQLQESGPGLVKPSETLSLTCSVSGVSSTSFYWSWIRQPAGKGLDWIGRIYTSGSTNYNPSLKSRVTMSVDTSKNQFSLKLSSVTAADTAVYYCARDPGYSDAFAIWGQGTMVTVSS VL: not shown |  |  | 33.8 | 104000 |
| 75110_01A06A (antibody, V domains shown, Tested as clonal hybridoma supernatant of an AlivaMab Mouse Kappa hybridoma (detected with anti-mouse Fc); Kappa light chain; also called Sib2.1) VH: EVQLVESGGGLVQPGGSLRLSCAASGFTFSSYWMSWVRQAPGKGLEWVANINEDGNEKYYVDSVKGRLTISRDNAKNSLYLQMNSLRAEDTAVYFCAREGGQWLSLDYWGQGALVTVSS VL: DIQMTQSPSSVSASVGDRVSITCRASQGISSWLAWYQQKPGKAPKILIYGASSLQSGVPSRFSGSGSGTDFTLTISSLQPEDFATYYCQQANSFPWTFGQGTKVEIK | 33.7 | 115000 |  |  |
| 75110_09N20A (antibody, V domains shown) VH: EVQLVESGGGLVQPGGSLRLSCAASGFTFSSYWMSWVRQAPGKGLEWVANINEDGSEKYYVDSVKGRFTISRDNAKNSLYLQMNSLRAEDTAVYYCVREGGQWLALDYWGQGTLVTVSS VL: DIQMTQSPSSVSASVGDRVTITCRASQGISSWLAWYQQKPGKAPKLLIYAASSLQSGVPSSFSGSGSGTDFTLTINSLQPEDFATYYCQQANSFPWTFGQGTKVAIK |  |  | 37.5 | 227000 |
| 75110_01C18A (antibody, V domains shown, Tested as clonal hybridoma supernatant (AlivaMab Mouse Kappa; anti-mouse Fc detection)) VH: EVQLVESGGGLIQPGGSLRLSCAASGFTVSSNYMNWVRQAPGKGLEWVSVIYAGDNTYSADSVKGRFTISRDNSNNTLCLQMNSLRAEDTAVYYCAREGGTTGAFDIWGQGTMVTVSS VL: DIQMTQSPSSVSASVGDRVTITCRASQGINSWLAWYQQKPGKAPKLLIYAASSLQSGVPSRFSGSGSGTDFTLTISSLQPEDFATYYCQQGNSFPYTFGQGTKLEIK | 34.1 | 205000 |  |  |
| 75110_02N15A (antibody, V domains shown, Tested as clonal hybridoma supernatant (AlivaMab Mouse Kappa; anti-mouse Fc detection); also called Sib2.3) VH: EVQLVESGGGLVQPGGSLRLSCAASGFTFSSYWMSWVRQAPGKGLEWVANINEDGNEKYYVDSVKGRFTISRDNAKNSLFLQMNSLRAEDTAVYFCAREGGQWLALDHWGQGALVTVSS VL: DIQMTQSPSSVSASVGDRVTITCRASQGISSWLAWYQQKPGKAPKFLISGASSLQSGVPSRFSGSGSGTDFTLTISSLQPEDFATYYCQQANSFPWTFGQGTKVEFK | 39 | 253000 |  |  |
| 75110_03D16A (antibody, V domains shown, Tested as clonal hybridoma supernatant (AlivaMab Mouse Kappa; anti-mouse Fc detection); also called Sib2.5) VH: EVQLVESGGGLVQPGGSLRLSCAASGFTFSSYWMSWVRQAPGKGLEWVANINQDGGEKYYVDSVKGRFTISRDNAKNSLYLQMNSLRAEDTAVYYCVREGGQWLALDYWGQGTLVTVSS VL: DIQMTQSPSSVSASVGDRVTITCRASQGISSWLTWYQQKPGKAPKFLIYAASSLQSGVPSRFSGSGFGTDFTLTISSLQPEDFATYYCQQANSFPWTFGQGTKVEIK | 35.6 | 207000 |  |  |
| 75110_07H07A (antibody, V domains shown) VH: EVQVVESGGGLVQPGGSLRLSCAASGFTFSSYWMSWVRQAPGKGLEWVANIKEEGSEKYYVDSVKGRFTISRDNAKNSLYLQMNSLRAEDTAVYYCVREGGQWLALDYWGQGTLVTVSS VL: DIQMTQSPSSVSGSVGDRVTITCRASQGISSWLAWYQQKPGKAPKLLIFGASSLQSGVPSRFSGSGSGTDFTLTISSLQPEDFATYYCQQANSFPWTFGQGTKVQIK |  |  | 37.1 | 204000 |
| 75110_09G15A (antibody, V domains shown) VH: EVQLVESGGGLVQPGGSLRLSCAASGFTFSDYWMSWVRQAPGKGLEWVANINQDGSEKYSVDSVKGRFTISRDNAKNSLYLQMNSLRAEDTAIFYCAREGGQWLALDYWGQGTLVTVSS VL: DIQMTQSPSSVSASVGDRVTITCRASQGISSWLAWYQQKPGKAPKLLIYGASSLQSGVPSRFSGSGSGTDFTLTINSLQPEDFTTYYCQQANIFPWTFGQGTKVEIK |  |  | 37.3 | 237000 |
| 75110_01D24A (antibody, V domains shown, Tested as clonal hybridoma supernatant (AlivaMab Mouse Kappa; anti-mouse Fc detection)) VH: QVQLQQWGAGLLKPSETLSLTCAVYGGSFSGYYWSWIRQPPGKGLEWIGEINHSGSTNYNPSLKSRVTISVDTSENQFSLKLNSVTAADTAVYYCARLVNWFDPWGQGTLVTVSS VL: EIQMTQSPSSVSASVGDRVTITCRASQDISNWLAWYQQKPGKAPNLLIFAASSLQTGVPSRFSGSGSGTDFTLTISSLQPDDFATYYCQQANSFPYSFGQGTNLGIK | 32.9 | 134000 |  |  |
| 75110_07J02A (antibody, V domains shown) VH: EVQLVESGGGLVQPGGSLRLSCAASGFTFSSYWMSWVRQAPGKGLEWVANIKEDGSEKYYVDSVKGRFTISRDNAKNSLYLQMNSLRAEDTAVYYCARDGSYSGYGMDVWGQGTTVTVSS VL: AIQMTQSPSSLSASVGDRVTITCRASQGIRNDLGWYQQKPGKAPKLLIYAASSLQSGVPSRFSGRGSGTDFALTISSLQPEDFATYYCLLDYNYPYTFGQGTRLEIK |  |  | 33.4 | 228000 |
| 75110_10K21A (antibody, V domains shown) VH: EVQLVESGGGLVQPGGSLRLSCAASGFTFSSYWMTWVRQAPGKGLEWVANIKQDGSEKYYVDSVKGRFTISRDNAKNSLYLQMNSLRAEDTAVYYCVRDRYDALDIWGQGTMVTVSS VL: AIQMTQSPSSLSASVGDRVTITCRASQGIRNDLNWYQQKPGKAPKLLIYAASSLQSGVPSRFSGSGSGTDFTLTISSLQAEDFATYYCLKDYNYPYTFGQGTKLEIK |  |  | 29 | 119000 |
| 75110_08A13A (antibody, V domains shown) VH: EVQLVESGGGLVQPGGSLRLSCAASGFIFSSYWMSWVRQAPGKGLEWVANIKQDGSEKYYMDSVKGRFTISRDNAKNSLYLQMNSLRAEDTAVYYCARDNSYYYYGMDVWGQGTTVTVSS VL: AIQMTQSPSSLSASVGDRVTITCRASQGIRDDLGWYQQKPGKAPKLLIFAASSLQSGVPSSFSGSGSGTDFTLTISSLQPEDFATYYCLHHYNYPYTFGQGTKLEIK |  |  | 30.3 | 140000 |
| 75110_08F20A (antibody, V domains shown) VH: QVQLQESGPGLVKPSETLSLTCSVSGGSISTYYWSWIRQPAGKGLEWIGRICTTENTNYNPSLKSRVTMSIDSSKNQFSLKLSSVTAADTAVYYCARDLERLNYYGMDVWGQGATVTVSS VL: DIQMTQSPSSLSASVGDRVTITCQASQDISKYLNWYQQKPGIAPKLLIYDASNLETGVPSRFSGSGSGTDFTFTISSLQPEDFATYYCQQYDSLPITFGQGTRLEIK |  |  | 33.2 | 307000 |
| 75110_08G08A (antibody, V domains shown) VH: QVQLQESGPGLVKPSETLSLTCSVSGGSISTYYWSWIRQPAGKGLEWIGRICTTENTNYNPSLKSRVTMSIDSSKNQFSLKLSSVTAADTAVYYCARDLERLNYYGMDVWGQGATVTVSS VL: DIQMTQSPSSLSASVGDRVTITCQASQDISNYLNWYQQKPGIAPKLLIYDASNLETGVPSRFSGSGSGTDFTFTISSLQPEDIATYYCQQYDSLPITFGQGTRLEIK |  |  | 32.2 | 324000 |
| 75110_07J24A (antibody, V domains shown) VH: QAQLQESGPGLVKPSETLSLTCTVSGGSISSYYYNWIRQPAGKGLEWIGRIYTSGRTDYNPSLKSRVTMSADTSKNQFSLKLSSVTAADTAVYYCARDEGPTDAFDIWGQGTMVTVSS VL: DIVMTQTPLSLPVTPGEPASISCRSSQSLLDSDDGNTYLDWYLQKPGQSPHLLIYTLSYRASGVPDRFSGSGSGSDFTLKISRVEAEDVGVYYCMQRIEFPFTFGPGTKVDIK |  |  | 28.8 | 28400 |
